The target in the experiment is T1, WT Aβ (1–10).
T1 chain: DAEFRHDSGY
In words: native MS; IM-MS of oligomers of one Aβ fragment alone; Aβ (1–10) and Aβ (1–16) 600 µM, 10 mM NH4OAc; oligomers of many sizes seen, a printed size is the largest one. Particulars: remark: other sources report otherwise.

The stoichiometry N is a count of units in the complex or per binding partner.

DAEFRHDSGY [WT Aβ (1–10)]: the stoichiometry N stood at 19.

The record behind these values is paper PMC6834639.
